Data published in patent US20260022175A1 (Chugai, published 2026).

Assays:
[1] = target: T1, human CTLA4 (human); assay: SPR Biacore T200, 37C, antibody captured, ATP 10 uM
T1 construct: also called hCTLA4; hCTLA4-His-BAP

[2] = target: T1, human CTLA4; assay: SPR Biacore T200, 37C, antibody captured, ADP 10 uM;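 further: antibodies held on a Protein G CM3 chip, human CTLA4 as analyte in ACES pH 7.4 buffer, rates from a global 1:1 Langmuir fit, Kd from rates or steady state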
Description: (§1) Biacore T200 was used to measure the binding of the generated antibodies to human CTLA4. 20 mM ACES (pH 7.4), 150 mM NaCl, 2 mM MgCl₂, 0.05% Tween 20 with ATP added to the desired concentration was used as the running buffer, and the assay was performed at 37° C. First, Protein G (CALBIOCHEM) was immobilized onto a Series S Sensor Chip CM3 (GE Healthcare), and the antibodies were captured by interacting an antibody solution prepared in an ATP-free running buffer with the chip. Next, by interacting with a human CTLA4 solution prepared in a running buffer containing ATP to the desired concentration, or a human CTLA4 solution prepared in a running buffer containing no ATP, the binding ability of the antibody to human CTLA4 in the presence or absence of ATP was evaluated. Chips were regenerated with 25 mM NaOH and 10 mM Glycine-HCl (pH 1.5), and assay was performed by repeatedly capturing antibodies. The dissociation constant of each antibody for CTLA4 was calculated using Biacore T200 Evaluation Software 2.0. Specifically, the binding rate constant ka (L/mol/s) and the dissociation rate constant kd (1/s) were calculated by global fitting of the sensorgrams obtained by the measurement, using a 1:1 Langmuir binding model. The dissociation constant KD (mol/L) was calculated from those values. Alternatively, the dissociation constant KD (mol/L) was calculated by the steady state model. In addition, the binding amount of CTLA4 per unit amount of antibody was calculated by correcting the amount of CTLA4 bound as calculated from the sensorgram obtained by the assay with the amount of antibody captured onto the chip surface.
The binding ability of the generated variants to human CTLA4 in the presence of ADP or AMP was evaluated by Biacore T200 and compared with the binding ability in the presence of ATP.

[3] = target: T1, human CTLA4; assay: SPR Biacore T200, 37C, antibody captured, ATP 10 uM; remark: listed apart in the source
[4] = target: T1, human CTLA4; assay: SPR Biacore T200, 37C, antibody captured, no ATP, steady state model
[5] = target: T1, human CTLA4; assay: SPR Biacore T200, 37C, antibody captured, AMP 10 uM
[6] = target: T1, human CTLA4; assay: SPR Biacore T200, 37C, antibody captured, ATP 1 uM
Description: as §1

T1 sequence (chain, as listed by the source limits assumed): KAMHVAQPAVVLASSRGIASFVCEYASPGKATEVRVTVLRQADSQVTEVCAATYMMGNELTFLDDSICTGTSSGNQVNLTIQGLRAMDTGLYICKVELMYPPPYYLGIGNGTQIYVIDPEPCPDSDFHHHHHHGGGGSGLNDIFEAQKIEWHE

| Binder | Kd [1] [nM] | Kd [2] [nM] | koff [2] [s⁻¹] | kon [2] [M⁻¹ s⁻¹] | Kd [3] [nM] | koff [3] [s⁻¹] | kon [3] [M⁻¹ s⁻¹] | Kd [4] [nM] | Kd [5] [nM] | koff [5] [s⁻¹] | kon [5] [M⁻¹ s⁻¹] | Kd [6] [nM] |
| --- | --- | --- | --- | --- | --- | --- | --- | --- | --- | --- | --- | --- |
| 04H1637-G1m/04L1610-lam1 (antibody, human IgG1, lambda) heavy: not shown light: QSALTQPPSASGSPGQSVTISCEGPSTGVGDYNWVHWYQQHPGKAPKLMIYFTSKKPSGVPDRFSGSKSGNTASLTVSGLQAEDEADYYCQTYAAPLGPMFGGGTKLTVLGQPKAAPSVTLFPPSSEELQANKATLVCLISDFYPGAVTVAWKADSSPVKAGVETTTPSKQSNNKYAASSYLSLTPEQWKSHRSYSCQVTHEGSTVEKTVAPTECS | 18 | 22 | 0.0035 | 160000 | 15 | 0.0019 | 120000 | 3300 | 70 | 0.01 | 150000 | 100 |
| 04H1637-G1m/04L1581-lam1 (antibody, human IgG1, lambda, V domains shown) VH: QVQLVESGGGLVKPGGSLRLSCAASGFTFSSKTMNWVRQAPGKGLEWVSSISTQSHYIYYAESVRGRFTISRDNAKNSLYLQMNSLRAEDTAVYYCARYGKREDMLWVFDYWGQGTLVTVSS VL: QSALTQPPSASGSPGQSVTISCQGPSTGVGDYTWVHWYQQHPGKAPKLMIYFTIKKPKGVPDRFSGSKSGNTASLTVSGLQAEDEADYYCQTYAAPLGPMFGGGTKLTVLG | 17 |  |  |  |  |  |  | 3200 |  |  |  | 89 |
| 04H1637-G1m/04L1594-lam1 (antibody, human IgG1, lambda, V domains shown) VH: QVQLVESGGGLVKPGGSLRLSCAASGFTFSSKTMNWVRQAPGKGLEWVSSISTQSHYIYYAESVRGRFTISRDNAKNSLYLQMNSLRAEDTAVYYCARYGKREDMLWVFDYWGQGTLVTVSS VL: QSALTQPPSASGSPGQSVTISCQGPSTGVGDYNWVHWYQQHPGKAPKLMIYFTSKKPKGVPDRFSGSKSGNTASLTVSGLQAEDEADYYCQTYAAPLGPMFGGGTKLTVLG | 28 |  |  |  |  |  |  | 4300 |  |  |  | 140 |
| 04H1643-G1m/04L1610-lam1 (antibody, human IgG1, lambda) heavy: not shown light: QSALTQPPSASGSPGQSVTISCEGPSTGVGDYNWVHWYQQHPGKAPKLMIYFTSKKPSGVPDRFSGSKSGNTASLTVSGLQAEDEADYYCQTYAAPLGPMFGGGTKLTVLGQPKAAPSVTLFPPSSEELQANKATLVCLISDFYPGAVTVAWKADSSPVKAGVETTTPSKQSNNKYAASSYLSLTPEQWKSHRSYSCQVTHEGSTVEKTVAPTECS | 14 |  |  |  |  |  |  | 2800 |  |  |  | 89 |
| 04H1389v373-G1m/04L1086-lam1 (antibody, human IgG1, lambda) heavy: not shown light: QSALTQPPSASGSPGQTVTISCDGPSTGVGDYNYVHWYQQHPGKAPKLMIYFTSKKPSGVPDRFSGSKSGNTASLTVSGLQAEDEADYFCQTYAAPLGPMFGGGTKLTVLGQPKAAPSVTLFPPSSEELQANKATLVCLISDFYPGAVTVAWKADSSPVKAGVETTTPSKQSNNKYAASSYLSLTPEQWKSHRSYSCQVTHEGSTVEKTVAPTECS | 28 |  |  |  |  |  |  | 5300 |  |  |  | 140 |
| 04H1654-G1m/04L1606-lam1 (antibody, human IgG1, lambda, V domains shown) VH: QVQLVESGGGVVQPGGSLRLSCAASGFTFSSKTMNWVRQAPGKGLEWVSSISTQSHYIYYARSVRGRFTISRDNAKNSLYLQMNSLRAEDTAVYYCARYGKREDMLWVFDYWGQGTLVTVSS VL: QSALTQPPSASGSPGQSVTISCQGPSTGVGDYNWVHWYQQHPGKAPKLMIYFTSKKPSGVPDRFSGSKSGNTASLTVSGLQAEDEADYYCQTYAAPLGPMFGGGTKLTVLG | 25 | 35 | 0.0028 | 80000 | 21 | 0.0013 | 65000 | 6800 | 110 | 0.009 | 81000 | 140 |
| 04H1637-G1m/04L1086-lam1 (antibody, human IgG1, lambda) heavy: not shown light: QSALTQPPSASGSPGQTVTISCDGPSTGVGDYNYVHWYQQHPGKAPKLMIYFTSKKPSGVPDRFSGSKSGNTASLTVSGLQAEDEADYFCQTYAAPLGPMFGGGTKLTVLGQPKAAPSVTLFPPSSEELQANKATLVCLISDFYPGAVTVAWKADSSPVKAGVETTTPSKQSNNKYAASSYLSLTPEQWKSHRSYSCQVTHEGSTVEKTVAPTECS | 30 |  |  |  |  |  |  | 5300 |  |  |  | 160 |
| 04H1656-G1m/04L1606-lam1 (antibody, human IgG1, lambda, V domains shown) VH: QVQLVESGGGVVQPGGSLRLSCAASGFTFSSKTMNWVRQAPGKGLEWVSSISTQSHYIYYAESVRGRFTISRDNAKNSLYLQMNSLRAEDTAVYYCARYGAREDMLWVFDYWGQGTLVTVSS VL: QSALTQPPSASGSPGQSVTISCQGPSTGVGDYNWVHWYQQHPGKAPKLMIYFTSKKPSGVPDRFSGSKSGNTASLTVSGLQAEDEADYYCQTYAAPLGPMFGGGTKLTVLG | 19 | 30 | 0.0048 | 160000 | 19 | 0.0022 | 120000 | 2300 | 100 | 0.016 | 160000 | 95 |
